The target of data set [1] is T1, NS5 WT (Dengue virus 2, UniProt A9LIC9 2492-3391). The data set can be described thus: EMSA; Kd stated only as micromolar range; value in figure. The settings on record: protein: recombinant; tags: N-terminal His6-TEV, cleaved; stem-loop. (Mobility shift assays separate free from complexed probe on a gel.)
In data set [2] the target is T1, NS5 WT. Kind of data set: EMSA; Kd value only in figure; >100-fold excess yeast tRNA does not affect binding. The settings on record: protein: recombinant; tags: N-terminal His6-TEV, cleaved; stem-loop.

B1: 5'SLA (structured_RNA)
RNA: AGUUGUUAGUCUACGUGGACCGACAAAGACAGAUUCUUUGAGGAAGCUAAGCUUAACGUAGUUCUAACAG
With B1, the binding result in data set [1] is on record as “binds”.

B2: 3'SL (structured_RNA)
RNA: AGAUCCUGCUGUCUCCUCAGCAUCAUUCCAGGCACAGAACGCCAGAAAAUGGAAUGGUGCUGUUGAAUCAACAGGUUCU
As for B2, the binding result in data set [2] is on record as “binds”.

Source of the values: PMC8906541, “A conserved arginine in NS5 binds genomic 3′ stem–loop RNA for primer-independent initiation of flavivirus RNA replication”.
